Experimental findings from patent US10711246B2, “Methods and compositions for generating epicardium cells” (UNIVERSITY HEALTH NETWORK, priority 2013, dated 2020) are described below.

“Also recorded” adds a separate entry of the source.

For experiment [1], the system named is hESC-derived mesoderm. The experiment can be described thus: qRT-PCR and immunostaining of myocardial and epicardial markers (WT1, TBX18) after treatment of mesoderm. The format is cell-based, human. To be noted: for WT1 expression in BMP4-treated cells: higher concentrations of DKK1 or small molecule antagonists, CHIR. From the text:
Values are relative to the housekeeping gene TBP. Error bars represent standard deviation from the mean of the values from three independent experiments (N=3); *P≤0.05, **P≤0.01 when compared to no treatment. FIG. 5. […] Error bars represent standard deviation from the mean of the values from three independent experiments (N=3); *P≤0.05, **P≤0.01 when compared to the ‘no Wnt treatment’ (NT) control in context of the indicated manipulation of the BMP pathway. (b) qRT-PCR-based analyses of WT1 expression on day 15 cultures generated from untreated cells (control) or cells treated with either BMP4 (10 ng/ml) or DM (4 μM) in combination with the indicated amounts of DKK or CHIR. Values are relative to the housekeeping gene TBP. Error bars represent standard deviation from the mean of the values from three independent experiments (N=3); *P≤0.05, **P≤0.01 when compared to the ‘no Wnt treatment’ (NT) control in the context of the indicated manipulation of the BMP pathway. (c) Flow cytometry analyses showing percent cTnT+ cells and qRT-PCR analyses for WT1 expression in day 15 cultures generated from untreated cells (control) or cells treated with either BMP4 (10 ng/ml) or DM (4 μM) in combination with the indicated amounts of XAV939 (XAV). Error bars represent standard deviation from the mean of the values from three independent experiments (N=3); *P≤0.05, **P≤0.01 when compared to no Wnt treatment (see FIGS. 9a and 9b) in the context of the specific BMP treatment. (d) Flow cytometry analyses showing percent cTnT+ cells and qRT-PCR analyses of WT1 expression in day 15 cultures generated from untreated cells (control) or cells treated with either BMP4 (10 ng/ml) or DM (4 μM) in combination with the indicated amounts of IWP2. Error bars represent standard deviation from the mean of the values from three independent experiments (N=3); *P≤0.05, **P≤0.01 when compared to no Wnt treatment (see FIGS. 9a and 9b) in the context of the specific BMP treatment. […] As a first approach to identify these cells, we analyzed them for expression of a panel of myocardial and epicardial genes over a 6-15 day time course. […] In vivo, the epicardial cells form an epithelial layer that surrounds the developing heart^18. In addition to their distinct morphology, epithelial cells in culture are characterized by their ability to form tight junctions that can be monitored by the presence of the zona occludins 1 (ZO1) protein.

In experiment [2] the test system is hESC-derived mesoderm. The experiment can be described thus: Cardiomyocyte specification from hESC-derived day 4 mesoderm, cTnT+ cells at day 15 by flow cytometry. The format is cell-based, human. To be noted: for cardiomyocyte development in presence of Wnt and activin/nodal/TGFβ inhibitor: specification step, contracting cTnT/SIRPA cells at day 15; for cardiomyocyte development / specification: added to day 4 mesoderm during specification step, high levels of BMP4 or inhibitors, analysed day 15. As to the method:
FIG. 1. Cardiomyocyte specification from hESCs. Scheme of the protocol used to differentiate hESCs towards the cardiomyocyte lineage highlighting the three main stages of development: 1) mesoderm induction, 2) cardiovascular specification and 3) maturation. Cells from ActivinA/BMP4-induced day 4 embryoid bodies (EBs) are plated as a monolayer on gelatin coated wells. […] Following specification, the cultures were maintained in VEGF for 9 days and then analyzed for the presence of cTnT+ cardiomyocytes by flow cytometry. FIG. 2. […] (a) Flow cytometric analyses showing the presence of the KDR+ and PDGFRα+ populations at day 4 and day 5 and the cTnT+ expression on day 15 of culture following no treatment (control), treatment with BMP4 (10 ng/ml) or the BMP4 inhibitor Noggin (400 ng/ml). (b) Total cell numbers per well at day 15 in the cultures treated as above. Error bars represent standard deviation from the mean from three experiments. FIG. 3. […] Graphical representation of flow cytometry analyses indicating the percent cTnT^+ cells in day 15 cultures generated from populations treated with the indicated amounts of BMP4 or Noggin. NT=no treatment. Bars represent standard deviation from the mean of the values from three independent experiments (N=3); *P≤0.05, **P≤0.01 when compared to no treatment. FIG. 9. […] Error bars represent standard deviation from the mean of the values from three independent experiments (N=3); *P≤0.05, **P≤0.01 when compared to the ‘no Wnt treatment’ (NT) control in context of the indicated manipulation of the BMP pathway. (b) qRT-PCR-based analyses of WT1 expression on day 15 cultures generated from untreated cells (control) or cells treated with either BMP4 (10 ng/ml) or DM (4 μM) in combination with the indicated amounts of DKK or CHIR. Values are relative to the housekeeping gene TBP. Error bars represent standard deviation from the mean of the values from three independent experiments (N=3); *P≤0.05, **P≤0.01 when compared to the ‘no Wnt treatment’ (NT) control in the context of the indicated manipulation of the BMP pathway. (c) Flow cytometry analyses showing percent cTnT+ cells and qRT-PCR analyses for WT1 expression in day 15 cultures generated from untreated cells (control) or cells treated with either BMP4 (10 ng/ml) or DM (4 μM) in combination with the indicated amounts of XAV939 (XAV). Error bars represent standard deviation from the mean of the values from three independent experiments (N=3); *P≤0.05, **P≤0.01 when compared to no Wnt treatment (see FIGS. 9a and 9b) in the context of the specific BMP treatment. (d) Flow cytometry analyses showing percent cTnT+ cells and qRT-PCR analyses of WT1 expression in day 15 cultures generated from untreated cells (control) or cells treated with either BMP4 (10 ng/ml) or DM (4 μM) in combination with the indicated amounts of IWP2. Error bars represent standard deviation from the mean of the values from three independent experiments (N=3); *P≤0.05, **P≤0.01 when compared to no Wnt treatment (see FIGS. 9a and 9b) in the context of the specific BMP treatment. Media consisting of StemPro-34 (Life Technologies) supplemented with […] penicillin/streptomycin, 2 mM L-glutamine, 1 mM ascorbic acid, and 4 3 10_4 M monothioglycerol (MTG) (Sigma). […] The Activin/Nodal/TGF-b and BMP inhibition experiments were carried out with SB-431542 (Tocris, Ellisville, Mo.) and dorsomorphin (Sigma), respectively. For experiments involving Wnt signaling, CHIR-99021 (Stemgent), XAV-939 (R&D), or IWP2(R&D) were used at the indicated concentrations. Cultures were maintained in a 5% CO2, 5% O2, 90% N2 environment for the first 10-12 days and were then transferred into a 5% CO2 air environment for the remainder of the culture period.

[3] abbreviates: titration during specification step, FIG. 3.
Where [4] appears, read: qRT-PCR, 6-15 day time course, cells from treated mesoderm.

Consider `Cc1c[nH]c(-c2cnc(NCCNc3ccc(C#N)cn3)nc2-c2ccc(Cl)cc2Cl)n1` [CHIR99021, reference compound], for which, in experiment [1] (qRT-PCR day 15), the “WT1 expression in DM treated cultures” value was “no change in WT1 expression”, the “WT1 expression in the endogenous BMP population” value is on record as “increased levels” and the “WT1 expression in BMP4-treated cells” value was “did not impact WT1 expression”. Moreover, in experiment [2] (Wnt activation in presence of dorsomorphin), the “cardiomyocyte development in DM-treated cultures” value is recorded as “unaffected”. Moreover, the “cardiomyocyte development in the endogenous BMP control” value in experiment [2] (Wnt activation, no BMP pathway regulators) is recorded as “inhibited cardiomyocyte development”.

Take `Cc1ccc2nc(NC(=O)CSc3nc4c(c(=O)n3-c3ccccc3)SCC4)sc2c1` [IWP2, reference compound]: the “WT1 expression in BMP4-treated cells” value in experiment [1] (qRT-PCR day 15) was “decreased WT1 expression”.

In the case of `NC(=O)c1ccc(-c2nc(-c3ccc4c(c3)OCO4)c(-c3ccccn3)[nH]2)cc1` [SB431542, reference compound], in experiment [2], the “cardiomyocyte development in presence of Wnt and activin/nodal/TGFβ inhibitor” value is recorded as “cardiomyocytes routinely develop”.

With `Oc1nc(-c2ccc(C(F)(F)F)cc2)nc2c1CSCC2` [XAV939, reference compound], the “WT1 expression in BMP4-treated cells” value in experiment [1] (qRT-PCR day 15) is reported as “decreased WT1 expression”.

B1: noggin (protein, UniProt Q13253 28-232, looked up)
Noggin: QHYLHIRPAPSDNLPLVDLIEHPDPIFDPKEKDLNETLLRSLLGGHYDPGFMATSPPEDRPGGGGGAAGGAEDLAELDQLLRQRPSGAMPSEIKGLEFSEGLAQGKKQRLSKKLRRKLQMWLWSQTFCPVLYAWNDLGSRFWPRYVKVGSCFSKRSCSVPEGMVCKPSKSVHLTVLRWRCQRRGGQRCGWIPIQYPIISECKCSC
Regarding B1, in experiment [1] (qRT-PCR, 6-15 day time course), the “expression of panel of myocardial and epicardial genes” value is “did not express significant levels of any of these genes”. For the same molecule, the “cardiomyocyte development / specification” value in experiment [2] is “completely blocked cardiomyocyte development; also recorded: inhibited cardiomyocyte specification”. The “levels of KDR (mesoderm development)” value in experiment [2] (flow cytometry after treatment of day 4 mesoderm) is listed as “decrease the levels of KDR to some extent”. Further, in experiment [2] (setting [3]), the “low levels at which cardiomyocyte development is achieved” value lay within 12.5 to 200 ng/mL.

B2: DKK1 (protein, UniProt O94907 32-266, looked up)
Dickkopf-related protein 1: TLNSVLNSNAIKNLPPPLGGAAGHPGSAVSAAPGILYPGGNKYQTIDNYQPYPCAEDEECGTDEYCASPTRGGDAGVQICLACRKRRKRCMRHAMCCPGNYCKNGICVSSDQNHFRGEIEETITESFGNDHSTLDGYSRRTTLSSKMYHTKGQEGSVCLRSSDCASGLCCARHFWSKICKPVLKEGQVCTKHRRKGSHGLEIFQRCYCGEGLSCRIQKDHHQASNSSRLHTCQRH
With B2, the “cardiomyocyte development in presence of Wnt and activin/nodal/TGFβ inhibitor” value in experiment [2] was “cardiomyocytes routinely develop”.

B3: Bone Morphogenetic Protein 4 (protein, UniProt P12644 293-408, looked up)
Bone morphogenetic protein 4: SPKHHSQRARKKNKNCRRHSLYVDFSDVGWNDWIVAPPGYQAFYCHGDCPFPLADHLNSTNHAIVQTLVNSVNSSIPKACCVPTELSAISMLYLDEYDKVVLKNYQEMVVEGCGCR
notes: Bone Morphogenetic Protein 4, human BMP4 (R&D Systems)
With B3, the “WT1 (nuclear) by immunostaining” value in experiment [1] (day 15 of culture) is on record as “detected only in cells induced with BMP4”. In experiment [1] (setting [4]), the TBX18 expression entry is “predominantly” and the WT1 expression result is recorded as “exclusively”. Moreover, the “BNC1 and ANXA8 expression” value in experiment [1] (qRT-PCR, cells from treated mesoderm) was “highly expressed”. In addition, the “cardiomyocyte development / specification” value in experiment [2] is listed as “completely blocked cardiomyocyte development”. Moreover, in experiment [2] (setting [3]), the “concentrations that inhibited cardiomyocyte specification” value was at least 0.63 ng/mL and the “low levels at which cardiomyocyte development is achieved” value stood at 0.31 ng/mL.
